From PMC9482650, “Quantitative fragmentomics allow affinity mapping of interactomes” (Nature Communications, 2022)

Columns and labels:
Test in all cases: holdup assay
Set-up in all cases: key: below the threshold = too weak to quantify, mostly under pKd 3.1 to 4
MAGI2_3, Q86UL8 = biological target: MAGI2_3, Q86UL8
PTPN13_1, Q12923 = biological target: T1, PTPN13_1, Q12923
T1 sequence (Q12923 1088-1188, limits assumed, looked up): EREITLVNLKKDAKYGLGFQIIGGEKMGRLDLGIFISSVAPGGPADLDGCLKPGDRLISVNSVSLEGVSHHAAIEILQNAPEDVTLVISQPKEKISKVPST

SHANK1, Q9Y566 = biological target: T2, SHANK1, Q9Y566
T2 sequence (Q9Y566 658-767, limits assumed, looked up): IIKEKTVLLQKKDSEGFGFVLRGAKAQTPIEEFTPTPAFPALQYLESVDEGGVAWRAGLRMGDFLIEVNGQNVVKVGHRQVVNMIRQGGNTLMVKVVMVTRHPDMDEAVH

MAGI2_6, Q86UL8 = biological target: MAGI2_6, Q86UL8
Inadl_5, Q8NI35 = biological target: Inadl_5, Q8NI35
GORASP2, Q9H8Y8 = biological target: GORASP2, Q9H8Y8
LNX1_1, Q8TBB1 = biological target: LNX1_1, Q8TBB1
PTPN3, P26045 = biological target: PTPN3, P26045
FRMPD1, Q5SYB0 = biological target: T3, FRMPD1, Q5SYB0
T3 sequence (Q5SYB0 52-145, limits assumed, looked up): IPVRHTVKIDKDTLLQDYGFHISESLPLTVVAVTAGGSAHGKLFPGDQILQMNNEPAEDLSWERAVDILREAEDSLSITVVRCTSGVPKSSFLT

LIN7A, O14910 = biological target: T4, LIN7A, O14910
T4 sequence (O14910 103-200, limits assumed, looked up): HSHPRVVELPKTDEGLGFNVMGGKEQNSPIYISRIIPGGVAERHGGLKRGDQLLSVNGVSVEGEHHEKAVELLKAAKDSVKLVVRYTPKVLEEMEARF

PDZRN4_1, Q6ZMN7 = biological target: PDZRN4_1, Q6ZMN7
MPDZ_12, O75970 = biological target: T5, MPDZ_12, O75970
T5 sequence (O75970 1857-1958, limits assumed, looked up): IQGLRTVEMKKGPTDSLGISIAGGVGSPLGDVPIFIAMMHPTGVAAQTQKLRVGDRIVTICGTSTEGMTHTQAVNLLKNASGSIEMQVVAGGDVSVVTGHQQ

Inadl_9, Q8NI35 = biological target: Inadl_9, Q8NI35
GRASP, Q7Z6J2 = biological target: GRASP, Q7Z6J2
DLG1_1, Q12959 = biological target: DLG1_1, Q12959
GIPC2, Q8TF65 = biological target: GIPC2, Q8TF65
GRID2IP_1, A4D2P6 = biological target: GRID2IP_1, A4D2P6
DLG2_3, Q15700 = biological target: DLG2_3, Q15700
NHERF2_2, Q15599 = biological target: NHERF2_2, Q15599
Inadl_10, Q8NI35 = biological target: Inadl_10, Q8NI35
Inadl_1, Q8NI35 = biological target: Inadl_1, Q8NI35
PCLO, Q9Y6V0 = biological target: T6, PCLO, Q9Y6V0
T6 sequence (Q9Y6V0 4491-4600, limits assumed, looked up): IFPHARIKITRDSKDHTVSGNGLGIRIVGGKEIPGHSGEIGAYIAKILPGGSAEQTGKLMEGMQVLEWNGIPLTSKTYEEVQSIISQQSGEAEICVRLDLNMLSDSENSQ

MAST2, Q6P0Q8 = biological target: MAST2, Q6P0Q8
NHERF4_4, Q86UT5 = biological target: NHERF4_4, Q86UT5
DLG3_2, Q92796 = biological target: T7, DLG3_2, Q92796
T7 sequence (Q92796 221-321, limits assumed, looked up): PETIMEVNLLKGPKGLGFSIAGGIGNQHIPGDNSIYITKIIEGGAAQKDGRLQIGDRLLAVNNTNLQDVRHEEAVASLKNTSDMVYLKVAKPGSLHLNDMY

TX1BP3, O14907 = biological target: T8, TX1BP3, O14907
T8 sequence (O14907 10-122, limits assumed, looked up): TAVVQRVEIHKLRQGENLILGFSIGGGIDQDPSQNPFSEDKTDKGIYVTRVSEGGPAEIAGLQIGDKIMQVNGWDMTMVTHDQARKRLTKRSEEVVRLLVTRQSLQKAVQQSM

ARHGEF11, O15085 = biological target: T9, ARHGEF11, O15085
T9 sequence (O15085 42-136, limits assumed, looked up): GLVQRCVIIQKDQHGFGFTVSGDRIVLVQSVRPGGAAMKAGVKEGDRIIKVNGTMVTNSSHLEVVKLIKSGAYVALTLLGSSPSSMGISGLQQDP

DLG5_1, Q8TDM6 = biological target: DLG5_1, Q8TDM6
MAGI2_2, Q86UL8 = biological target: MAGI2_2, Q86UL8
[1] = plain residues with an end cap or a label only (N-terminal biotin on a linker: ado-ado)
[2] = modified: phospho on T at position -2 from the C-terminal residue

MAGI2_6, Q86UL8, sequence (Q86UL8 1141-1229): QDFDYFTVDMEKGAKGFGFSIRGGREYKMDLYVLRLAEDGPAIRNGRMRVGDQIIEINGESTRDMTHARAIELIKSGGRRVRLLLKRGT
Inadl_9, Q8NI35, sequence (Q8NI35 1530-1615): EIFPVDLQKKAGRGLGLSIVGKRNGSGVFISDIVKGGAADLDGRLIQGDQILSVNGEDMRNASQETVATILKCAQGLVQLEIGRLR
DLG5_1, Q8TDM6, sequence (Q8TDM6 617-713): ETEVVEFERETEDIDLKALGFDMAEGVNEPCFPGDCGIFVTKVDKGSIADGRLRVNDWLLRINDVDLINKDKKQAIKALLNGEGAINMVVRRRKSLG
MAGI2_2, Q86UL8, sequence (Q86UL8 410-522): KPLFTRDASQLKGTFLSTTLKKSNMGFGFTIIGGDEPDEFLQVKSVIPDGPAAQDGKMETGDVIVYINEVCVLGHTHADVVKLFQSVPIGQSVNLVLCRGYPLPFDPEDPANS
NHERF4_4, Q86UT5, sequence (Q86UT5 464-550): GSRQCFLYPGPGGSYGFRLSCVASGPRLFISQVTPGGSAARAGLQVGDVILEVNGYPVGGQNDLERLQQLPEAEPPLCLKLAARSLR
GIPC2, Q8TF65, sequence (Q8TF65 112-203): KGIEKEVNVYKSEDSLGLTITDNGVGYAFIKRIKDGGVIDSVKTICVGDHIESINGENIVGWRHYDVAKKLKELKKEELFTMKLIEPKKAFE
LNX1_1, Q8TBB1, sequence (Q8TBB1 261-371): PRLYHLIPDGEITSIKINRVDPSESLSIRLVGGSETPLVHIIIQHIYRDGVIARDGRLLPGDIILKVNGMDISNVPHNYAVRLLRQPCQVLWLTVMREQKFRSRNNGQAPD
Inadl_1, Q8NI35, sequence (Q8NI35 113-229): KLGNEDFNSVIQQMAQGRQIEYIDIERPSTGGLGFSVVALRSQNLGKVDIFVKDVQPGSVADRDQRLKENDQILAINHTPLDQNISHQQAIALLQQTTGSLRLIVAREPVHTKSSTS
PDZRN4_1, Q6ZMN7, sequence (Q6ZMN7 213-318): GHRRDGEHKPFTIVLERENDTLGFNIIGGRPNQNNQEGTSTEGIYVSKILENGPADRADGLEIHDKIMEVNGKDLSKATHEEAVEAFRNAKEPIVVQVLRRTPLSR
MAST2, Q6P0Q8, sequence (Q6P0Q8 1099-1202): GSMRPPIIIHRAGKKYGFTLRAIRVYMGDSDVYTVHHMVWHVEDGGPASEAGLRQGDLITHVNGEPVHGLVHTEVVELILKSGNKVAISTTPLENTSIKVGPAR
PTPN3, P26045, sequence (P26045 505-587): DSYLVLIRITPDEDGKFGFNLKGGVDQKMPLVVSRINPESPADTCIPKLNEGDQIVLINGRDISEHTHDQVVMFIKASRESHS
Inadl_10, Q8NI35, sequence (Q8NI35 1673-1763): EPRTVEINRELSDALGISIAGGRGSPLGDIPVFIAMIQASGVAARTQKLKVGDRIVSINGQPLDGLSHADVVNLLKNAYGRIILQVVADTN
GRASP, Q7Z6J2, sequence (Q7Z6J2 96-193): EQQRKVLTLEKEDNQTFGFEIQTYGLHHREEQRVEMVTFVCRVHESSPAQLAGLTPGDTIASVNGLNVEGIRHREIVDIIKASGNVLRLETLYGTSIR
Inadl_5, Q8NI35, sequence (Q8NI35 673-780): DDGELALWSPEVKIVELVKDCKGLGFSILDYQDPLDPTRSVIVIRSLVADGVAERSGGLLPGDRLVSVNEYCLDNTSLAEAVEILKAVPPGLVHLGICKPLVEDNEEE
GRID2IP_1, A4D2P6, sequence (A4D2P6 1-87): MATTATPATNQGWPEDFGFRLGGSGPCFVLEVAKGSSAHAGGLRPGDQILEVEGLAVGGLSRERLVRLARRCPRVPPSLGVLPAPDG
NHERF2_2, Q15599, sequence (Q15599 142-238): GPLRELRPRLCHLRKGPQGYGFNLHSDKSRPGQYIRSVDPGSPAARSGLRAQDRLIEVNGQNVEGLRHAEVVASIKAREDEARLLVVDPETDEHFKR
MAGI2_3, Q86UL8, sequence (Q86UL8 600-682): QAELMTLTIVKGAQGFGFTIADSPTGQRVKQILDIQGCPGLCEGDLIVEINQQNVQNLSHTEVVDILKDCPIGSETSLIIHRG

LRSPRTPSEV [OR10G3, Q8NGC4]
pKd (MAGI2_3, Q86UL8; [1]): 3.55 | pKd (PTPN13_1, Q12923; [1]): 3.71 | pKd (SHANK1, Q9Y566; [1]): below the threshold | pKd (MAGI2_6, Q86UL8; [1]): below the threshold | pKd (Inadl_5, Q8NI35; [1]): 4.73 | pKd (GORASP2, Q9H8Y8; [1]): below the threshold | pKd (LNX1_1, Q8TBB1; [1]): below the threshold | pKd (PTPN3, P26045; [1]): 4.26 | pKd (FRMPD1, Q5SYB0; [1]): below the threshold | pKd (LIN7A, O14910; [1]): below the threshold | pKd (PDZRN4_1, Q6ZMN7; [1]): below the threshold | pKd (MPDZ_12, O75970; [1]): 3.5 | pKd (Inadl_9, Q8NI35; [1]): 4.01 | pKd (GRASP, Q7Z6J2; [1]): below the threshold | pKd (DLG1_1, Q12959; [1]): below the threshold | pKd (GIPC2, Q8TF65; [1]): below the threshold | pKd (GRID2IP_1, A4D2P6; [1]): below the threshold | pKd (DLG2_3, Q15700; [1]): below the threshold | pKd (NHERF2_2, Q15599; [1]): below the threshold | pKd (Inadl_10, Q8NI35; [1]): below the threshold | pKd (Inadl_1, Q8NI35; [1]): below the threshold | pKd (PCLO, Q9Y6V0; [1]): below the threshold | pKd (MAST2, Q6P0Q8; [1]): 3.61 | pKd (NHERF4_4, Q86UT5; [1]): below the threshold | pKd (DLG3_2, Q92796; [1]): 3.65 | pKd (TX1BP3, O14907; [1]): 3.51 | pKd (ARHGEF11, O15085; [1]): below the threshold | pKd (DLG5_1, Q8TDM6; [1]): below the threshold | pKd (MAGI2_2, Q86UL8; [1]): 4.27

SKPTRRETEV [HPV35-E6_-2P, P27228]
pKd (MAGI2_3, Q86UL8; [2]): below the threshold | pKd (PTPN13_1, Q12923; [2]): below the threshold | pKd (SHANK1, Q9Y566; [2]): below the threshold | pKd (MAGI2_6, Q86UL8; [2]): below the threshold | pKd (Inadl_5, Q8NI35; [2]): below the threshold | pKd (GORASP2, Q9H8Y8; [2]): below the threshold | pKd (LNX1_1, Q8TBB1; [2]): below the threshold | pKd (PTPN3, P26045; [2]): 3.98 | pKd (FRMPD1, Q5SYB0; [2]): below the threshold | pKd (LIN7A, O14910; [2]): below the threshold | pKd (PDZRN4_1, Q6ZMN7; [2]): below the threshold | pKd (MPDZ_12, O75970; [2]): below the threshold | pKd (Inadl_9, Q8NI35; [2]): below the threshold | pKd (GRASP, Q7Z6J2; [2]): below the threshold | pKd (DLG1_1, Q12959; [2]): below the threshold | pKd (GIPC2, Q8TF65; [2]): below the threshold | pKd (GRID2IP_1, A4D2P6; [2]): below the threshold | pKd (DLG2_3, Q15700; [2]): 3.52 | pKd (NHERF2_2, Q15599; [2]): below the threshold | pKd (Inadl_10, Q8NI35; [2]): below the threshold | pKd (Inadl_1, Q8NI35; [2]): below the threshold | pKd (PCLO, Q9Y6V0; [2]): below the threshold | pKd (MAST2, Q6P0Q8; [2]): below the threshold | pKd (NHERF4_4, Q86UT5; [2]): 3.86 | pKd (DLG3_2, Q92796; [2]): below the threshold | pKd (TX1BP3, O14907; [2]): 4.07 | pKd (ARHGEF11, O15085; [2]): below the threshold | pKd (DLG5_1, Q8TDM6; [2]): below the threshold | pKd (MAGI2_2, Q86UL8; [2]): below the threshold

RRRESYSTTV [EVI5, O60447]
pKd (MAGI2_3, Q86UL8; [1]): below the threshold | pKd (PTPN13_1, Q12923; [1]): below the threshold | pKd (SHANK1, Q9Y566; [1]): 4.36 | pKd (MAGI2_6, Q86UL8; [1]): 3.77 | pKd (Inadl_5, Q8NI35; [1]): 3.63 | pKd (GORASP2, Q9H8Y8; [1]): 5.13 | pKd (LNX1_1, Q8TBB1; [1]): 4.47 | pKd (PTPN3, P26045; [1]): 4.31 | pKd (FRMPD1, Q5SYB0; [1]): below the threshold | pKd (LIN7A, O14910; [1]): below the threshold | pKd (PDZRN4_1, Q6ZMN7; [1]): 4.23 | pKd (MPDZ_12, O75970; [1]): below the threshold | pKd (Inadl_9, Q8NI35; [1]): 3.88 | pKd (GRASP, Q7Z6J2; [1]): 4.55 | pKd (DLG1_1, Q12959; [1]): 5.66 | pKd (GIPC2, Q8TF65; [1]): below the threshold | pKd (GRID2IP_1, A4D2P6; [1]): below the threshold | pKd (DLG2_3, Q15700; [1]): 4.52 | pKd (NHERF2_2, Q15599; [1]): 4.21 | pKd (Inadl_10, Q8NI35; [1]): 3.8 | pKd (Inadl_1, Q8NI35; [1]): below the threshold | pKd (PCLO, Q9Y6V0; [1]): below the threshold | pKd (MAST2, Q6P0Q8; [1]): 5.66 | pKd (NHERF4_4, Q86UT5; [1]): below the threshold | pKd (DLG3_2, Q92796; [1]): 5.44 | pKd (TX1BP3, O14907; [1]): 4.09 | pKd (ARHGEF11, O15085; [1]): 4.68 | pKd (DLG5_1, Q8TDM6; [1]): below the threshold | pKd (MAGI2_2, Q86UL8; [1]): 5.15
